Source: IntAct's records for PubMed 34706264

B1: ORF3a protein (SARS-CoV-2), P0DTC3 (parent)
chain: MDLFMRIFTIGTVTLKQGEIKDATPSDFVRATATIPIQASLPFGWLIVGVALLAVFQSASKIITLKKRWQLALSKGVHFVCNLLLLFVTVYSHLLLVAAGLEAPFLYLYALVYFLQSINFVRIIMRLWLCWKCRSKNPLLYDANYFLCWHTNCYDYCIPYNSVTSSIVITSGDGTTSPISEHDYQIGGYTEKWESGVKDCVVLHSYFTSDYYQLYSTQLSTDTGVEHVTFFIYNKIVDEPEEHVQIHTIDGSSGVVNPVMEPIYDEPTTTTSVPL
B2: ORF3a protein (SARS-CoV-2), P0DTC3 (parent)
chain: B1 chain
partner: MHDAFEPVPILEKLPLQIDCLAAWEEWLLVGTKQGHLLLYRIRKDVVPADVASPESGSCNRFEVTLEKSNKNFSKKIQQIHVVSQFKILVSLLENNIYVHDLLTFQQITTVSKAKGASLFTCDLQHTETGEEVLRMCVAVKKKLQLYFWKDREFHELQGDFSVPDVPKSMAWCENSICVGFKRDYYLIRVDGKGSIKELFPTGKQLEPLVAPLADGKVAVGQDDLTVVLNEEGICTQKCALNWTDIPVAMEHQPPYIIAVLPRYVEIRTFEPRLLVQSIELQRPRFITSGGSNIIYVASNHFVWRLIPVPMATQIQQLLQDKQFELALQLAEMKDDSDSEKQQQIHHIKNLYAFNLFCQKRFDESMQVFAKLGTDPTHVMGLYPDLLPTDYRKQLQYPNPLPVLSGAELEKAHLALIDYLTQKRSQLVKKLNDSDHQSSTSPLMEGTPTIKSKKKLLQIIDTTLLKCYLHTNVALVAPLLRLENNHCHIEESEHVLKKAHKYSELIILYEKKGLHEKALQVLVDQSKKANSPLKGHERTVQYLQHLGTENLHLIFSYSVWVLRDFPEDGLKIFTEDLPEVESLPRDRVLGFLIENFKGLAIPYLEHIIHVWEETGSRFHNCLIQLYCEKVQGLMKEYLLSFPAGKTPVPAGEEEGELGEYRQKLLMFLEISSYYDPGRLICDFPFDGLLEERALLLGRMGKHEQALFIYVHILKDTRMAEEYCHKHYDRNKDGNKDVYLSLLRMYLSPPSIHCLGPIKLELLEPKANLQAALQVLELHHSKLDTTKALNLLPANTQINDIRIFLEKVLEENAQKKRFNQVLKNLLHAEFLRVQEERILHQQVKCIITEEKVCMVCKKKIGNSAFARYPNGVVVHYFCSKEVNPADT

Variants of: B1
Conditions: with stx4_human STX4, Q12846
Sequence of stx4_human STX4, Q12846 (Q12846 whole entry): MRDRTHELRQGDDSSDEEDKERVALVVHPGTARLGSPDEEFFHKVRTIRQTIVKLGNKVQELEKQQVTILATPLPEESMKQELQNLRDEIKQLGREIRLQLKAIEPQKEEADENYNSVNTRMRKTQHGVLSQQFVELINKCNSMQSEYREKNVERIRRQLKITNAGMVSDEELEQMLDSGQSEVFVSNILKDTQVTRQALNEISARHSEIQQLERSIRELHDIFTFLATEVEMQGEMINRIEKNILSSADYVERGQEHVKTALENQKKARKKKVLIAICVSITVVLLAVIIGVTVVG

Row | Variant | effect of a mutation on the interaction
1 | S171E | disrupting interaction strength

Variants of: B1
Conditions: with vamp7_human VAMP7, P51809
Sequence of vamp7_human VAMP7, P51809 (P51809 whole entry): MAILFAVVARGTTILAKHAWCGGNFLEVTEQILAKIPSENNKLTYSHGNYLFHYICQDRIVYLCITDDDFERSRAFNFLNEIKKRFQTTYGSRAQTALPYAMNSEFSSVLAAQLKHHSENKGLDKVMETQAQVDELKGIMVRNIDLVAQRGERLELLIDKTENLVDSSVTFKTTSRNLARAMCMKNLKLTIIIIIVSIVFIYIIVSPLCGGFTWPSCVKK

Row | Variant | effect of a mutation on the interaction
2 | S171E | disrupting interaction strength

Variants of: B2
Conditions: with vps39_human VPS39, Q96JC1

Row | Variant | effect of a mutation on the interaction
3 | Q116L | with no effect
4 | MDLFMRIFTIGTVTLKQGEIKDATPSDFVRATATIPIQASLPFGWLIVGVALLAVFESASKIITLKKRWQLALSKGVHFVCNLLLLFVTVYSHLLLVAAGLEAPFLYLYALVYFLQSINFVRIIMRLWLCWKCRSKNPLLYDANYFLCWHTNCYDYCIPYNSVTSSIVITSGDGTTSPISEHDYQIGGYTEKWESGVKDCVVLHSYFTSDYYQLYSTQLSTDTGVEHVTFFIYNKIVDEPEEHVQIHTIDGSSGVVNPVMEPIYDEPTTTTSVPL [Q57E] | with no effect
5 | S58L | with no effect

Variants of: B2
Conditions: with vps39_human VPS39, Q96JC1
Remark: another data set of the same source

Row | Variant | effect of a mutation on the interaction
6 | W193R | decreasing interaction strength
7 | S171E | disrupting interaction strength
